# Experimental data reported in the supplement of paper PMC10126150.
# ± gives the standard deviation of the averaged measurements.
# System: ATP
# Experiment: switch fluorescence ratio, 500 uM ATP over buffer (Cy3 cluster intensity, sum of 5 cycles each) (fold (ratio)); higher = stronger signal-on switching upon ATP binding; sequences stand for … in TCGTCGGCAGCGTCAGATGTGTATAAGAGACAGTTTTTTTTTTTTTTTTTTTTTTTTT…TC
# Conditions: aptamer strand: ATP DNA aptamer (quencher-CACCTGGGGGAGTATTGCGGAGGAAGG + anchor), 100 nM annealed; ATP concentration: 500 uM
# How it was run: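 After annealing to 100 nM quencher-labelled ATP aptamer, Cy3-labelled switching-strand clusters on a modified Illumina MiSeq flow-cell were imaged in selection buffer. A second image followed after 15 min with 500 uM ATP at 22 °C, and five such buffer/ATP cycles were done, each separated by NaOH stripping and re-annealing. The fluorescence ratio, averaged per switch-domain sequence, is summed target-cycle over summed buffer-cycle Cy3 intensity per cluster, with clusters outside 100-1000 RFU excluded.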
# 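Further: ATP exposure 15 min at 22 °C before imaging.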
row,Sequence,switch fluorescence ratio
1,AATGGGTAC,1.015 ± 0.0059
2,TGCAAGCGAC,2.61 ± 0.18
3,AAGAAGGAGG,1.01 ± 0.029
4,TCCCAAAATG,1.01 ± 0.039
5,AGGTCTATTG,1.06 ± 0.09
6,CTTAATTTTT,0.98 ± 0.032
7,CCACGGGGTT,1.06 ± 0.072
8,TGGGCTTAAG,1.02 ± 0.026
9,CAATGGCTTT,0.9983 ± 0.0059
10,CGGGAATAAA,0.993 ± 0.016
11,TATTAATGTG,0.974 ± 0.042
12,GTCAGTGTCG,0.962 ± 0.021
13,ATAGGATGTG,1.01 ± 0.023
14,CTCTTGGGGT,0.997 ± 0.021
15,ACTTAGGGGA,1.02 ± 0.036
16,GGTCTACCGG,1.01 ± 0.017
17,TTCAAAATTT,0.982 ± 0.015
18,TAAAGAAGGT,1.01 ± 0.033
19,ATTAATCTT,1.011 ± 0.0016
20,TCGGTCCGTT,0.9492 ± 0.0027
21,GCCTGTATTG,0.982 ± 0.027
22,TCTAGTGTGC,0.9772 ± 0.0086
23,AAGTGTTAG,0.966 ± 0.011

row,Sequence,switch fluorescence ratio
1,GTAAGGGAAT,0.9718 ± 0.0065
2,TTATTGTGTA,0.979 ± 0.025
3,TTTTGTTACT,1.01 ± 0.026
4,CCGGGGGATT,1.4 ± 0.49
5,GGCTAAGGTC,1 ± 0.044
6,TATGTGTCAG,0.977 ± 0.012
7,GTGTTGTTCG,0.995 ± 0.015
8,GTGGGCTGTT,1.01 ± 0.06
9,TTTAGCACGA,1 ± 0.024
10,TTTGGGTTTT,1.01 ± 0.054
11,TAATTCTTGG,0.972 ± 0.046
12,ACGATGGTTG,0.9729 ± 0.0095
13,GTGTTTTCCT,1.04 ± 0.017
14,AGTAGACGAC,1.03 ± 0.042
15,TAGATGGGAT,0.976 ± 0.014
16,GCGTTTGGG,1.14 ± 0.15
17,GGTTAAGAAA,1.021 ± 0.0081
18,ATCTTTCGCG,1.02 ± 0.015
19,GTTGCTTTGG,1.04 ± 0.017
20,TATAGGCAGG,0.9772 ± 0.008
21,CATAGGTCTA,0.996 ± 0.019
22,AGCGGAGTTT,0.984 ± 0.031
23,AAACTAAGAA,1 ± 0.016

row,Sequence,switch fluorescence ratio
1,TGCATGGAGC,0.9946 ± 0.0042
2,TTTACCCGGC,1.1 ± 0.13
3,GTTCTAGTGT,0.972 ± 0.04
4,TCGTGAGGTT,1.01 ± 0.012
5,CCGCGGGTTG,1.05 ± 0.02
6,TATATGCCTT,1.01 ± 0.036
7,TTACAGTCGT,1.03 ± 0.022
8,TCGTAATAGT,1.62 ± 0.068
9,TGGGTGGAGA,1.02 ± 0.021
10,TATCCGGGTG,3.23 ± 0.25
11,CAGGATGTAT,0.9852 ± 0.0029
12,CACTCGAGTC,0.978 ± 0.011
13,TGAAATATGG,1 ± 0.017
14,TGTTACTTAT,1.05 ± 0.016
15,CATTTTGCGT,0.972 ± 0.035
16,GTGTCATAGC,0.975 ± 0.012
17,AAAAATAGTG,1.036 ± 0.0098
18,GAACGAGGGG,1.01 ± 0.019
19,GGGGAAATAT,0.981 ± 0.024
20,GTGTTATATT,1.004 ± 0.0089
21,CGTCATGCTC,1.19 ± 0.036
22,TTGCTATGAA,1.01 ± 0.054
23,CCCGAGTGGG,0.992 ± 0.054

row,Sequence,switch fluorescence ratio
1,ATTTGAAGCG,0.998 ± 0.024
2,AGAGTTGAGA,1.0102 ± 0.001
3,AGCAGCGCGG,1.04 ± 0.042
4,ATGTAGTACG,1 ± 0.02
5,CAGCCTGCGG,1.01 ± 0.029
6,ATATGTCTGG,0.953 ± 0.017
7,GTGGAACCTT,1.24 ± 0.2
8,ACAGTGCCGG,1.02 ± 0.055
9,TTTTTAATCA,0.987 ± 0.014
10,TTTATCGTGG,0.9721 ± 0.002
11,GGAAGGAATG,0.966 ± 0.0076
12,TTACAACGTA,1 ± 0.013
13,CCATTTGCGG,1.001 ± 0.0088
14,AGTTAATTTG,0.9823 ± 0.0097
15,CATTGACTTT,1.02 ± 0.016
16,CGGATGTGGT,0.973 ± 0.016
17,GTGATTCCGA,1.02 ± 0.029
18,TGGTGGGGAA,0.974 ± 0.01
19,CATAAATCAA,0.9925 ± 0.006
20,GGGGGCATAT,1.02 ± 0.026
21,ACCGTTGTTC,1.04 ± 0.02
22,CGCCGATTAA,1.03 ± 0.062
23,GATTTTCGAG,0.994 ± 0.031

row,Sequence,switch fluorescence ratio
1,CAAGTAGGGG,0.9765 ± 0.0015
2,GGCGGCAGGG,1 ± 0.013
3,GCCCGGTCGG,0.953 ± 0.017
4,GTATTACAGG,1.04 ± 0.04
5,GCAAAGCGTC,0.9824 ± 0.0083
6,TACCTTGAGC,0.9999 ± 0.0034
7,CAGTGTTA,0.985 ± 0.064
8,CGCTAACTTG,1.01 ± 0.047
9,ATATTTCAGG,0.999 ± 0.027
10,GTTAATGTAA,0.9934 ± 0.0059
11,ATGAGTTACT,1.005 ± 0.0051
12,TTATATTGTT,0.984 ± 0.017
13,TTTGTTTCAA,0.982 ± 0.013
14,TCTTTAAAGA,0.9785 ± 0.0083
15,TTTGTGTCTT,0.967 ± 0.024
16,CGTTGGGTTT,1.03 ± 0.054
17,CCATGAACAT,1 ± 0.028
18,CTCTGACGGC,1.12 ± 0.12
19,GAGAGTGGTT,0.998 ± 0.012
20,CGTGAAGGCG,0.952 ± 0.024
21,TCTTAGGCGT,1.02 ± 0.022
22,TTGAAATGTT,0.9923 ± 0.0033
23,TGATCTAGGC,0.98 ± 0.074

row,Sequence,switch fluorescence ratio
1,TCCTCAGTGC,1.93 ± 0.13
2,TTTTCATTAT,1.046 ± 0.0066
3,TCCAAGTCCC,1.018 ± 0.0088
4,AGAGGGGTTG,0.972 ± 0.016
5,GAAACATACG,1.33 ± 0.026
6,TTGTTGCCTG,0.9907 ± 0.0083
7,CGGTAGACCT,1.105 ± 0.0037
8,GTGTTTTGGC,1.02 ± 0.029
9,GGATGTTAGT,1 ± 0.008
10,ATGTAGGGAG,0.998 ± 0.017
11,ACGACTGTTA,1.04 ± 0.02
12,TTTTCATGAG,1.01 ± 0.012
13,GAGATAGGGG,0.994 ± 0.016
14,AATGACGGTA,1.0565 ± 0.00075
15,TAGAACTGGG,1.05 ± 0.037
16,TGAGGATTTT,1.05 ± 0.1
17,CAGCTTGGGG,1.019 ± 0.0089
18,TCAAACTTAT,1.05 ± 0.027
19,CCTAGGGTGT,2.12 ± 0.32
20,TGTTTCTCGA,0.9619 ± 0.0041
21,AGATGGGGGG,1.02 ± 0.033
22,TACGGTGGGT,0.982 ± 0.032
23,TCCTGAATGA,1 ± 0.03

row,Sequence,switch fluorescence ratio
1,ATGGCAGCTG,0.9949 ± 0.0095
2,CGCTCGGTTA,0.956 ± 0.031
3,TAGCTTTGGG,1 ± 0.011
4,GTGTTTGCTA,1.02 ± 0.032
5,CGGAGATAGT,1.02 ± 0.028
6,AAGAGGGGTG,1.01 ± 0.025
7,CTATTTCTGA,0.931 ± 0.027
8,CCGGTTATAA,1.278 ± 0.009
9,CAGTTTACCG,1.03 ± 0.019
10,AGCGCGGGGG,1.002 ± 0.006
11,AACATGGGGA,0.976 ± 0.025
12,TAATTGGGGT,0.994 ± 0.018
13,GGATCCTTTC,1.23 ± 0.083
14,TAATTGGCAA,1.004 ± 0.0017
15,CGATTCGAGG,1.03 ± 0.011
16,ACATAAAGGG,1.03 ± 0.024
17,GGTTCGTCGT,0.987 ± 0.02
18,TCTGAAAGTC,0.9963 ± 0.0057
19,TTAGCTTGGT,0.999 ± 0.043
